The source of these data is patent US20240002543A1 (MARENGO THERAPEUTICS, published 2024).

Residue numbers refer to the chain shown, from its start.

Sequences and labels used below:
T1: cynomolgus CD3e (cynomolgus, UniProt Q95LI5 22-117, limits assumed)
T1 construct: also called cCD3e; cyno CD3e
T1 sequence (looked up): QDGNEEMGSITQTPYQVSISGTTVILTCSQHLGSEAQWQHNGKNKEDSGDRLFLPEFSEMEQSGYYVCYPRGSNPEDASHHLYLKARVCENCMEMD

T2: cynomolgus CD3e (cynomolgus, UniProt Q95LI5 22-117)
T2 chain: T1 sequence (looked up)

T3: Human CD3e (Acro Biosystems CDE-H5223) (human, UniProt P07766 23-126)
T3 chain: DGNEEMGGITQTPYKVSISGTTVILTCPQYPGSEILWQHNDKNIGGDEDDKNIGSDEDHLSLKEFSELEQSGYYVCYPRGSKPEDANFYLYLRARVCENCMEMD

B1: BKM0025 (humanized anti-CD3 antibody molecule) (antibody, V domains shown)
VH: QVQLVQSGAEVKKPGASVKVSCKASGYTFTTYWMHWVRQAPGQGLEWMGNFNPNNGDTNYNEKFKTRVTMTVDKSTSTAYMELRSLRSDDMAVYYCARDDYGRYYFDYWGQGTLVTVSS
VL: EIVMTQSPATLSLSPGERATLSCKSSQSLLNSRTRKNYLAWYQQKPGLAPRLLIYWAFTRESGIPDRFSGSGSGTDFTLTISRLEPEDFAVYYCKQSFILRTFGGGTKVEIK
notes: Captured via anti-human Fc antibody in SPR; constant regions not tied
B2: BKM0020 (humanized anti-CD3 antibody molecule) (antibody, V domains shown)
VH: B1 VH
VL: DIQMTQSPSTLSASVGDRVTITCKSSQSLLNSRTRKNYLAWYQQKPGKAPKLLIYWAFTRESGVPSRFSGSGSGTEFTLTISSLQPDDFATYYCKQSFILRTFGGGTKVEIK
notes: Captured via anti-human Fc antibody in SPR, so it carries a human Fc; constant regions not tied
B3: BKM0038 (humanized anti-CD3 antibody molecule) (antibody, V domains shown)
VH: B1 VH with Q43K, R84S, D89E, M91T
VL: B2 VL with T10S, E76D, D87E
notes: as for B1
B4: BKM0028 (humanized anti-CD3 antibody molecule) (antibody, V domains shown)
VH: B1 VH with Q43K, R84S, D89E, M91T
VL: B1 VL
notes: as for B1

One experiment deals with T4, Human CD3e (Acro Biosystems CDE-H5223) (human, UniProt P07766 23-126).
T4 construct: Analyte in SPR; also called huCD3e
The experiment in a line: SPR (Biacore T200), antibody captured via anti-human Fc, CD3e as analyte, 1:1 model. The method, then:
(§1) In this example, exemplary humanized anti-CD3 antibody molecules BKM0020, BKM0025, BKM0028, BKM0038 (as described herein) were tested for their binding affinity to human or cynomolgus CD3e using surface plasmon resonance (SPR). SPR measurements were performed by using the BIAcore T200. Each construct was immobilized on a CM5 chip via Anti-human Fc antibody to a response of 200 RU. Human CD3e (Acro Biosystems CDE-H5223) was diluted to 500 nM and then diluted two-fold. Each analyte concentration was injected at a flow rate of 20 μl/min over the surface on which each antibody was immobilized. The data was fit using a 1:1 binding model. Affinity to human CD3e was preserved compared to the parental and affinity to cyno CD3e was two to three-fold lower compared to the parental antibody.
Take B1: the binding result is on record as “binds”.
As to B2, the binding result is listed as “binds”.
Still for that read-out and setting: for B3 the value was “binds”.
B4: the binding result is “binds”.

A further experiment has as its target T1, cynomolgus CD3e. Described as above. The method, then: as §1
As for B1, the binding result is “binds”.
For the molecule B2, the binding result is listed as “binds”.
With B3, the binding result is “binds”.
On the same count and under the same terms, the entry for B4 is “binds”.

Another experiment concerns the target T5, human CD3e on Jurkat cells (human, UniProt P07766 23-207).
T5 construct: whole, on cells; also called huCD3e; CD3 expressed on Jurkat cells
The experiment in a line: flow cytometry (FACS) on Jurkat cells, 3-fold dilutions from 10 ug/ml, anti-human IgG AF647. Here is the method: Binding of the exemplary humanized anti-CD3 antibodies to CD3-expressing Jurkat cells was performed using FACS. Antibodies were tested in a series of 3-fold dilutions starting with 10 ug/ml concentration and detected using anti-human IgG secondary antibodies conjugated to AF647.
Background: In flow cytometry, cells or beads pass a laser one at a time.
Turning to B2, the binding result is “binds”.

The target in another experiment is T2, cynomolgus CD3e. In words: SPR. On the technique in general: SPR reads the build-up and loss of mass on a sensor chip optically.
For the molecule B1, the Kd – broadly, the constant that tells how readily two partners part at equilibrium – was determined as 18.3 nM. This counts as double-digit nanomolar.
Molecule B2 had a Kd of 9.98 nM. This Kd is about 1.8-fold lower than that of the molecule before.
For the molecule B3, the Kd came to 14.1 nM.
B4 returned a Kd of 14.1 nM.

The target of another experiment is T3, Human CD3e (Acro Biosystems CDE-H5223). The experiment in a line: SPR.
On to B2, for which binding was put at a Kd of 6.34 nM.
Still for that read-out and setting: for B3 the value was 6.47 nM; for B4, 4.72 nM.
